Measurements reported in IntAct's records for PubMed 31515488.

B1: Protein sprouty homolog 1 (Homo sapiens), O43609 (parent)
chain: MDPQNQHGSGSSLVVIQQPSLDSRQRLDYEREIQPTAILSLDQIKAIRGSNEYTEGPSVVKRPAPRTAPRQEKHERTHEIIPINVNNNYEHRHTSHLGHAVLPSNARGPILSRSTSTGSAASSGSNSSASSEQGLLGRSPPTRPVPGHRSERAIRTQPKQLIVDDLKGSLKEDLTQHKFICEQCGKCKCGECTAPRTLPSCLACNRQCLCSAESMVEYGTCMCLVKGIFYHCSNDDEGDSYSDNPCSCSQSHCCSRYLCMGAMSLFLPCLLCYPPAKGCLKLCRRCYDWIHRPGCRCKNSNTVYCKLESCPSRGQGKPS
partner: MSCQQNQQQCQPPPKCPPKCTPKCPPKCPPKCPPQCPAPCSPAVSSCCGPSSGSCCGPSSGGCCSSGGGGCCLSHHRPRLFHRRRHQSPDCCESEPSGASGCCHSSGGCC
B2: Modulator of apoptosis 1 (Homo sapiens), Q96BY2 (parent)
chain: MTLRLLEDWCRGMDMNPRKALLIAGISQSCSVAEIEEALQAGLAPLGEYRLLGRMFRRDENRKVALVGLTAETSHALVPKEIPGKGGIWRVIFKPPDPDNTFLSRLNEFLAGEGMTVGELSRALGHENGSLDPEQGMIPEMWAPMLAQALEALQPALQCLKYKKLRVFSGRESPEPGEEEFGRWMFHTTQMIKAWQVPDVEKRRRLLESLRGPALDVIRVLKINNPLITVDECLQALEEVFGVTDNPRELQVKYLTTYQKDEEKLSAYVLRLEPLLQKLVQRGAIERDAVNQARLDQVIAGAVHKTIRRELNLPEDGPAPGFLQLLVLIKDYEAAEEEEALLQAILEGNFT
partner: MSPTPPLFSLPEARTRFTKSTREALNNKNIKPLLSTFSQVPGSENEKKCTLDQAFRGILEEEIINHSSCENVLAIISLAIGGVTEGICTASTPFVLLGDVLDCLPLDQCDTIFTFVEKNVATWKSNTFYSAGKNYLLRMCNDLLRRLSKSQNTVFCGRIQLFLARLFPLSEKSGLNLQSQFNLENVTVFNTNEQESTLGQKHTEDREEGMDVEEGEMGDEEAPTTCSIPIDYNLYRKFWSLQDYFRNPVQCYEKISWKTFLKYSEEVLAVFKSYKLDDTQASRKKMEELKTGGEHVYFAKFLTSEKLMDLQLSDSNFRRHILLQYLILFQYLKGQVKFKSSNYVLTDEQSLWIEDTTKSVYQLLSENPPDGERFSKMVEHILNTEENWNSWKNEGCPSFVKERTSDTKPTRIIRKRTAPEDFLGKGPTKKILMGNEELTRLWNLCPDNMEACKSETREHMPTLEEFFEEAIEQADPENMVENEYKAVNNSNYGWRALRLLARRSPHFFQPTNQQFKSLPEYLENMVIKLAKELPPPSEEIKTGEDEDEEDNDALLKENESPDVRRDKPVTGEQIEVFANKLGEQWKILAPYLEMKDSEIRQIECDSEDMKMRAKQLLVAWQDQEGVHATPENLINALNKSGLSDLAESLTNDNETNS
B3: Proteasome subunit beta type-1 (Homo sapiens), P20618 (parent)
chain: MLSSTAMYSAPGRDLGMEPHRAAGPLQLRFSPYVFNGGTILAIAGEDFAIVASDTRLSEGFSIHTRDSPKCYKLTDKTVIGCSGFHGDCLTLTKIIEARLKMYKHSNNKAMTTGAIAAMLSTILYSRRFFPYYVYNIIGGLDEEGKGAVYSFDPVGSYQRDSFKAGGSASAMLQPLLDNQVGFKNMQNVEHVPLSLDRAMRLVKDVFISAAERDVYTGDALRICIVTKEGIREETVSLRKD
partner: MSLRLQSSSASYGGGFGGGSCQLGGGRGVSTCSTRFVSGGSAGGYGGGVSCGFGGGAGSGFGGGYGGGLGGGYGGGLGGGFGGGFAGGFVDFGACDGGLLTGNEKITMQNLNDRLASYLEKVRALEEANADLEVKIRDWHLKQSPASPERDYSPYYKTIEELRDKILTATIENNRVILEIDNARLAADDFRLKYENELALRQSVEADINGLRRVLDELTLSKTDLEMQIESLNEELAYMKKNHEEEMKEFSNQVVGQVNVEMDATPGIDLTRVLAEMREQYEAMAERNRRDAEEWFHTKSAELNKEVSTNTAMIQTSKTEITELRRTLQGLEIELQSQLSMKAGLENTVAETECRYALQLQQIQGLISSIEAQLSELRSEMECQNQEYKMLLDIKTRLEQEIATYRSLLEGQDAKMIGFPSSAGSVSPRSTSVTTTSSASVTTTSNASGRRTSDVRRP
B4: Coiled-coil domain-containing protein 70 (Homo sapiens), Q6NSX1 (parent)
chain: MFSFKVSRWMGLACFRSLAASSPSIRQKKLMHKLQEEKAFREEMKIFREKIEDFREEMWTFRGKIHAFRGQILGFWEEERPFWEEEKTFWKEEKSFWEMEKSFREEEKTFWKKYRTFWKEDKAFWKEDNALWERDRNLLQEDKALWEEEKALWVEERALLEGEKALWEDKTSLWEEENALWEEERAFWMENNGHIAGEQMLEDGPHNANRGQRLLAFSRGRA
partner: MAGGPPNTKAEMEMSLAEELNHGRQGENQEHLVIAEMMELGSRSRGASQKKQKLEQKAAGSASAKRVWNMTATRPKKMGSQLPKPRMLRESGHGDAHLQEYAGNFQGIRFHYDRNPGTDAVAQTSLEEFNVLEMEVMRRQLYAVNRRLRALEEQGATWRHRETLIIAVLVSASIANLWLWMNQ
B5: Tetraspanin-5 (Homo sapiens), P62079 (parent)
chain: MSGKHYKGPEVSCCIKYFIFGFNVIFWFLGITFLGIGLWAWNEKGVLSNISSITDLGGFDPVWLFLVVGGVMFILGFAGCIGALRENTFLLKFFSVFLGIIFFLELTAGVLAFVFKDWIKDQLYFFINNNIRAYRDDIDLQNLIDFTQEYWQCCGAFGADDWNLNIYFNCTDSNASRERCGVPFSCCTKDPAEDVINTQCGYDARQKPEVDQQIVIYTKGCVPQFEKWLQDNLTIVAGIFIGIALLQIFGICLAQNLVSDIEAVRASW
partner: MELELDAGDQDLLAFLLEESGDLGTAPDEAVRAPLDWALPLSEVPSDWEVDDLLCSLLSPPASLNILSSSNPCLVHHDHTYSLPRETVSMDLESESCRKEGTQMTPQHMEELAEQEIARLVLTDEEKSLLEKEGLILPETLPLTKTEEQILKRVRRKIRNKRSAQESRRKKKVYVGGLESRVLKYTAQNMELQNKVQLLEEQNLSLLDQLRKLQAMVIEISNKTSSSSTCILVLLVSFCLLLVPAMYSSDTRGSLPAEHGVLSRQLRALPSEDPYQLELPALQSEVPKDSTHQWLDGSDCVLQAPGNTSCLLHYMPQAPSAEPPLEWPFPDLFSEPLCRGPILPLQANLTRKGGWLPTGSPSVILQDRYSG
B6: Fructose-1,6-bisphosphatase isozyme 2 (Homo sapiens), O00757 (parent)
chain: MTDRSPFETDMLTLTRYVMEKGRQAKGTGELTQLLNSMLTAIKAISSAVRKAGLAHLYGIAGSVNVTGDEVKKLDVLSNSLVINMVQSSYSTCVLVSEENKDAIITAKEKRGKYVVCFDPLDGSSNIDCLASIGTIFAIYRKTSEDEPSEKDALQCGRNIVAAGYALYGSATLVALSTGQGVDLFMLDPALGEFVLVEKDVKIKKKGKIYSLNEGYAKYFDAATTEYVQKKKFPEDGSAPYGARYVGSMVADVHRTLVYGGIFLYPANQKSPKGKLRLLYECNPVAYIIEQAGGLATTGTQPVLDVKPEAIHQRVPLILGSPEDVQEYLTCVQKNQAGS
B7: Cyclin-dependent kinase 2-interacting protein (Homo sapiens), Q9BW66 (parent)
chain: MEAKTLGTVTPRKPVLSVSARKIKDNAADWHNLILKWETLNDAGFTTANNIANLKISLLNKDKIELDSSSPASKENEEKVCLEYNEELEKLCEELQATLDGLTKIQVKMEKLSSTTKGICELENYHYGEESKRPPLFHTWPTTHFYEVSHKLLEMYRKELLLKRTVAKELAHTGDPDLTLSYLSMWLHQPYVESDSRLHLESMLLETGHRAL
partner: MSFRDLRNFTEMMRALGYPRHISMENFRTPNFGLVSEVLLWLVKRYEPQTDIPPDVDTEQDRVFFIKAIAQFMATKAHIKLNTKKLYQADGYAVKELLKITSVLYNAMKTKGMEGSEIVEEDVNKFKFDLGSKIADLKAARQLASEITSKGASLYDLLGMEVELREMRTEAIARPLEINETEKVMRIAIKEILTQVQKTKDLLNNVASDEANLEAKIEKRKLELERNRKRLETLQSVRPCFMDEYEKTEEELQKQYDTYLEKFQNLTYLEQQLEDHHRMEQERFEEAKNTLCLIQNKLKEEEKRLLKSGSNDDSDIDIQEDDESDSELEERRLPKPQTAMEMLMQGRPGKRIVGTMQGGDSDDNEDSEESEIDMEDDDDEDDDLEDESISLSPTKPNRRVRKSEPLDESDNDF
B8: Probable splicing factor YJU2B (Homo sapiens), P13994 (parent)
chain: MGERKGVNKYYPPDFNPEKHGSLNRYHNSHPLRERARKLSQGILIIRFEMPYNIWCDGCKNHIGMGVRYNAEKKKVGNYYTTPIYRFRMKCHLCVNYIEMQTDPANCDYVIVSGAQRKEERWDMADNEQVLTTEHEKKQKLETDAMFRLEHGEADRSTLKKALPTLSHIQEAQSAWKDDFALNSMLRRRFREKKKAIQEEEERDQALQAKASLTIPLVPETEDDRKLAALLKFHTLDSYEDKQKLKRTEIISRSWFPSAPGSASSSKVSGVLKKLAQSRRTALATSPITVGDLGIVRRRSRDVPESPQHAADTPKSGEPRVPEEAAQDRPMSPGDCPPETTETPKCSSPRGQEGSRQDKPLSPAGSSQEAADTPDTRHPCSLGSSLVADYSDSESE
partner: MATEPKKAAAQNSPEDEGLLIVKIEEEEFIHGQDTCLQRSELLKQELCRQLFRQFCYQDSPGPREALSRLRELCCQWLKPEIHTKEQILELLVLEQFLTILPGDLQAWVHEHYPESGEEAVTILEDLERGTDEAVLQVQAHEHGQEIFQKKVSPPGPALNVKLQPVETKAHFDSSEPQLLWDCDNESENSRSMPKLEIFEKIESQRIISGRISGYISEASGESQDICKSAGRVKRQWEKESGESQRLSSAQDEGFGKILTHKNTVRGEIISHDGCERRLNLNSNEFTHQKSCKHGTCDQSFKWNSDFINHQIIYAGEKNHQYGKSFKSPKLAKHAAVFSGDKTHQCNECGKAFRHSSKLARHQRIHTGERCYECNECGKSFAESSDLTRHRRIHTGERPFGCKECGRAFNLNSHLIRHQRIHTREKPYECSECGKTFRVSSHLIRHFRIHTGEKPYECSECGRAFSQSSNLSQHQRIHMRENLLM
B9: Syntenin-2 (Homo sapiens), Q9H190 (parent)
chain: MSSLYPSLEDLKVDQAIQAQVRASPKMPALPVQATAISPPPVLYPNLAELENYMGLSLSSQEVQESLLQIPEGDSTAVSGPGPGQMVAPVTGYSLGVRRAEIKPGVREIHLCKDERGKTGLRLRKVDQGLFVQLVQANTPASLVGLRFGDQLLQIDGRDCAGWSSHKAHQVVKKASGDKIVVVVRDRPFQRTVTMHKDSMGHVGFVIKKGKIVSLVKGSSAARNGLLTNHYVCEVDGQNVIGLKDKKIMEILATAGNVVTLTIIPSVIYEHMVKKLPPVLLHHTMDHSIPDA
partner: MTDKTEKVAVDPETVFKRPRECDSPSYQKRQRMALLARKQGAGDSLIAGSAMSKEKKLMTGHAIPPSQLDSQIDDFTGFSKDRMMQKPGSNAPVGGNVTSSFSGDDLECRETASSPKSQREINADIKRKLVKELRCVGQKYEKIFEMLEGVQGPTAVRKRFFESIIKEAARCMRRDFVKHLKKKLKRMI

Variants of: B1
Settings: with lce2d_human LCE2D

Variant | effect of a mutation on the interaction
R24H | with no effect

Variants of: B2
Settings: with thoc1_human THOC1, Q96FV9

Variant | effect of a mutation on the interaction
R57K | with no effect

Variants of: B3
Settings: with KRT13, P13646

Variant | effect of a mutation on the interaction
P11A | with no effect

Variants of: B4
Settings: with fate1_human FATE1, Q969F0

Variant | effect of a mutation on the interaction
M200V | with no effect
R62Q | with no effect

Variants of: B5
Settings: with creb3_human CREB3, O43889

Variant | effect of a mutation on the interaction
T218M | with no effect

Variants of: B6
Settings: with FBP1, P09467
Sequence of FBP1, P09467 (P09467 whole entry): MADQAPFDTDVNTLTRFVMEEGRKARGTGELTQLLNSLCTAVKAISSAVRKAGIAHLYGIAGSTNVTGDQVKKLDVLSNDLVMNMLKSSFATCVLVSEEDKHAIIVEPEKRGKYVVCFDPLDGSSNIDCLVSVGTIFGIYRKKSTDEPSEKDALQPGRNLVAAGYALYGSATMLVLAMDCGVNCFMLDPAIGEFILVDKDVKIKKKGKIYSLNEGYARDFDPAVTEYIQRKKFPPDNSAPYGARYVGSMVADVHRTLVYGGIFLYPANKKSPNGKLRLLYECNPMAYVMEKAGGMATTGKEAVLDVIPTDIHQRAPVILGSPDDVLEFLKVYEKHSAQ

Variant | effect of a mutation on the interaction
Y216C | with no effect

Variants of: B7
Settings: with clua1_human CLUAP1, Q96AJ1

Variant | effect of a mutation on the interaction
R164H | disrupting interaction strength

Variants of: B7
Settings: with clua1_human CLUAP1, Q96AJ1
Remark: another data set of the same source

Variant | effect of a mutation on the interaction
D177N | with no effect

Variants of: B8
Settings: with zn165_human ZNF165, P49910

Variant | effect of a mutation on the interaction
S22C | with no effect

Variants of: B9
Settings: with ct453_human CT45A3, Q8NHU0

Variant | effect of a mutation on the interaction
R223C | with no effect
